This is an account of results in article PMC3830645.

Test [1] has as its target EGF/tEGFR: purified tail-truncated EGFR (aa 25–1022) with EGF, solubilized in detergent or reconstituted in nanodiscs.
Test [2] has the same target. This is another data set of the same source.

B1: unligated GST-Mig6 (aa 336–391) (domain or fragment)
chain: KSLPSYLNGVMPPTQSFAPDPKYVSSKALQRQNSEGSASKVPCILPIIENGKKVPG
B1: the IC50 of inhibition of EGFR (tEGFR) kinase activity in test [1] is greater than 3000 nM.

B2: His6-Mig6 segment 1+2 (aa 336–412) mutant Y394E (domain or fragment)
chain: KSLPSYLNGVMPPTQSFAPDPKYVSSKALQRQNSEGSASKVPCILPIIENGKKVSSTHEYLLPERPPYLDKYEKFFR
B2: the IC50 of inhibition of tEGFR kinase activity in test [2] worked out at 740 nM.
